In publication PMC7133768:
Substitutions are numbered along the chain they refer to. Names and notes keep the numbering of the source.

B1: EgtBCth (Cabther_A1318) (Chloracidobacterium thermophilum B; A420Y/D52L) (protein)
chain: EAARSHPEPIQSGEVSDRKAWQRHYRAVRAVSEAICQPLETEDYVVQPMPLVSPPKWHLGHTSWFFETFILKSGLADYRPFHPRYDYIFNSYYEAVGARHPRPQRGLLTRPTVSEVYAYRAHVDAAVERFIAHSDTRTWAALQPILELGLHHEQQHQELLLTDIKAILATNPLDPVYRPQPQPLPSPVEQLSPTGDWHIVEGGRYAIGHAGRGFAFDNEGPRHDVLLRPCRIAARPVTNGEFLAFMADGGYRRPELWLSDGWAAVTARGWEAPLYWRQAADGTWETLTLHGVQPVAPYEPVCHISFYEADAYARWAGKRLPTEAEWEVVAARLPVTGNFYESGVLHPRPVSVSAAFYGDVWVWTASPYVGYPGFRPVSGALGEYNGKFMCNQMVLRGGSCATSLTHIRSTYRNFFPPDYRWQFTGVRLAEDMS
B2: EgtBCth (Cabther_A1318) (Chloracidobacterium thermophilum B; A420Y) (protein)
chain: B1 chain with L51D
B3: EgtBCth (Cabther_A1318) (Chloracidobacterium thermophilum B; D52L) (protein)
chain: B1 chain with Y419A
B4: EgtBCth (Cabther_A1318) (Chloracidobacterium thermophilum B) (protein)
chain: B1 chain with L51D, Y419A

Columns and labels:
Test in all cases: oxygen consumption assay
Assay type in all cases: biochemical, Chloracidobacterium thermophilum
oxygen consumption assay [1] = substrate: C[N+](C)(C)[C@@H](Cc1cnc[nH]1)C(=O)[O-]; conditions: co-substrate L-Cys
oxygen consumption assay [2] = substrate: N[C@@H](CS)C(=O)O; conditions: co-substrate hercynine
oxygen consumption assay [3] = substrate: N[C@@H](CCC(=O)N[C@@H](CS)C(=O)O)C(=O)O; conditions: co-substrate hercynine

Row | Protein | Km (oxygen consumption assay [1]) [µM] | kcat (oxygen consumption assay [1]) [s⁻¹] | kcat/Km (oxygen consumption assay [1]) [M⁻¹ s⁻¹] | Km (oxygen consumption assay [2]) [µM] | kcat (oxygen consumption assay [2]) [s⁻¹] | kcat/Km (oxygen consumption assay [2]) [M⁻¹ s⁻¹] | kcat/Km (oxygen consumption assay [3]) [M⁻¹ s⁻¹] | Km (oxygen consumption assay [1]; Fe(II) enzyme) [µM]
1 | B1 | 23.3 ± 1.2 | 0.545 ± 0.005 | 23300 ± 1170 | 48.7 ± 3.5 | 0.545 ± 0.005 | 11200 ± 667 |  | 
2 | B2 | 39.2 ± 1.6 |  | 11700 ± 500 | 28.1 ± 1.8 |  | 16300 ± 1000 |  | 
3 | B3 | 13.2 ± 1.3 |  |  | 47.3 ± 2.4 |  |  |  | 
4 | B4 |  |  |  | 205 ± 18 |  | 2170 ± 167 | 50 ± 8.33 | 87.7 ± 7.6
